The results in this text go back to patent US5612040.

For the assay, the target named is baby hamster kidney (BHK) cells. The assay is described as follows: cell binding to BHK cells at a constant virus/cell ratio (1000:1).

Consider “foot-and-mouth disease virus (FMDV) type A12, wild-type virus (VRGDF at amino acids 143-147 of VP1)”, for which the Cell Binding, % is 65%.
